Data set [1] concerns the molecule itself. The data set is described as follows: SEC; Enrich SEC 650 10 x 300 column, 20 mM HEPES, 150 mM NaCl, 1 mM DTT, 5% glycerol, pH 7.5; AbfR1 Ms concentrated to 1.9 mg/mL; MW from a standard curve. On the technique in general: In gel filtration, larger molecules generally elute earlier.
The target of data set [2] is T1, AbfR1Ms (Metallosphaera sedula DSM5348, UniProt A4YIR2 1-115).
T1 sequence: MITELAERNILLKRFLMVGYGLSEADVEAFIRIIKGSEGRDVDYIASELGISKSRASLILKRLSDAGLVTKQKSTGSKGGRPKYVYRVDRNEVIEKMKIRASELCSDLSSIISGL
The data set is described as follows: EMSA; apparent; salmon sperm competitor DNA; EMSA: 20 mM Tris-HCl pH 8.0, 50 mM NaCl, 0.4 mM EDTA, 0.1 mM DTT, 1 mM MgCl2, 12.5% glycerol, 25 ug/mL sonicated salmon sperm DNA, 25 min at 37 C; AFM: same buffer, 15 min at 37 C, then NiCl2/HEPES adsorption on mica. To be noted: protein: recombinant; tags: C-terminal His; chain copies: 2; label: 5'-32P on one strand; blunt. For orientation: A gel shift assay detects complexes by their altered migration in electrophoresis.

B1: AbfR1 Ms (recombinant, C-terminal His-tag) (natural protein, Metallosphaera sedula, UniProt A4YIR2 1-115, looked up)
chain: T1 sequence
notes: 115 amino acids, estimated MW 12.7 kDa; codon-optimized synthetic gene fragment (446 bp) cloned NdeI/XhoI into pET24a; No tag cleavage is described; A disulfide bridge between the two chains is proposed (C105, from an AlphaFold model and DTT sensitivity); also called Lrs14-like AbfR1 homolog from Metallosphaera sedula; HhcR; source: E. coli Rosetta (DE3), pET24a; purified (heat treatment 70°C, …)
Regarding B1, in data set [1], the “stoichiometry N” value amounted to 2.

B2: ORF abfR1Sa (dsDNA)
DNA 1: GTCTTTCTGAATCAGAAATAGACACATTTCTAAGGATACTTGAAAGCAAAGAAGGTAAGGATATTGATGCAATATCTGCAGAACTAAAAATTAGTAAAAG
DNA 2: CTTTTACTAATTTTTAGTTCTGCAGATATTGCATCAATATCCTTACCTTCTTTGCTTTCAAGTATCCTTAGAAATGTGTCTATTTCTGATTCAGAAAGAC
With B2, the Kd in data set [2] stood at 546 nM.

The stoichiometry N is a count of units in the complex or per binding partner.

The record behind these values is article PMC12529230, “The Lrs14‐Like AbfR1 Homolog From Metallosphaera sedula Is a Nucleoid‐Organizing Protein” (MicrobiologyOpen, 2025).
